Assay results as given in patent US20050054090A1 (Scripps Research, published 2005).

Target: T1, murine IA^d MHC class II heterodimer expressed on the surface of Drosophila S2 cells (murine, UniProt P04228 24-256; P01921 28-265)
T1 construct: whole, on cells; Expressed without peptide on Drosophila S2 cells, alone or with accessory molecules; also called H2-A^d; recombinant MHC class II
T1 sequence (MHC II alpha, looked up): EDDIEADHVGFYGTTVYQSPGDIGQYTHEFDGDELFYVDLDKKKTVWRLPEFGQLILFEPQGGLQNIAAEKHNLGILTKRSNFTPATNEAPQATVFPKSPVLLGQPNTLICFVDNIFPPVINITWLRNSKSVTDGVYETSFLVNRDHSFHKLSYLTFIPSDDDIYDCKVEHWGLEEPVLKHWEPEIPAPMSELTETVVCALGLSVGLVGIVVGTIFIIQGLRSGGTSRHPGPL
T1 sequence (MHC II beta, looked up): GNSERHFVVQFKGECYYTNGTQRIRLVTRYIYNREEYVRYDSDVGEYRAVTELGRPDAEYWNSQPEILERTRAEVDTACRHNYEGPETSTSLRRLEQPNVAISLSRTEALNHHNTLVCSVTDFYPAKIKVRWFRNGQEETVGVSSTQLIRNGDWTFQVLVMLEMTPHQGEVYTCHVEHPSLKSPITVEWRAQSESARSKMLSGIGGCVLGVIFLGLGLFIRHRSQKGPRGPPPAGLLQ
Experiment: inferred by the filing from OVA-peptide-dose-dependent T cell proliferation with peptide-loaded Drosophila APC; no direct binding assay
Experimental: Proliferation is assayed as described in Example 5. The proliferation is measured in counts per minute (cpm)×1000 as plotted on the Y-axis against increasing concentrations of OVA peptide in μM on the X-axis. […] Proliferative responses with recombinant MHC class II alone are shown in the line having closed circles. Those with MHC class II combined with either costimulatory molecules B7.1 or B7.2 are shown respectively with lines having open and closed squares.
The effect of peptide presentation in the presence of MHC class II with and without accessory molecules, B7.1, B7.2 or B7.2 plus ICAM-1, was first assessed in a proliferation assay performed as described by Webb et al., Cell, 63:1249 (1990). Briefly, 5×10⁴ CD4⁺ T cells were cultured in microtiter wells with 5×10⁴ Drosophila cells in 300 μl of culture medium. Eighteen hours prior to harvesting, 100 μl of supernatant were removed for cytokine analysis and 1 μCi of ³H-thymidine was added to each well. At the times indicated (3, 4 or 5 days), the wells were individually harvested onto glass fiber filters and counted in a liquid scintillation counter.

- binding result: binds
B1: ovalbumin323-339 (OVA) peptide (peptide)
peptide: ISQAVHAAHAEINEAGR
notes: Chemically synthesized by T-BOC chemistry and added to the cultures; also called ovalbumin peptide 323-339
